Reference: patent US11833164B2, “Methods of treating Fabry disease in patients having a mutation in the GLA gene” (Amicus Therapeutics, Inc., priority 2019, dated 2023)
Positions count from the first letter of the chain named. In names and notes the source's numbering stands.

B1: L191V (protein)
chain: MQLRNPELHLGCALALRFLALVSWDIPGARALDNGLARTPTMGWLHWERFMCNLDCQEEPDSCISEKLFMEMAELMVSEGWKDAGYEYLCIDDCWMAPQRDSEGRLQADPQRFPHGIRQLANYVHSKGLKLGIYADVGNKTCAGFPGSFGYYDIDAQTFADWGVDLLKFDGCYCDSLENLADGYKHMSLAVNRTGRSIVYSCEWPLYMWPFQKPNYTEIRQYCNHWRNFADIDDSWKSIKSILDWTSFNQERIVDVAGPGGWNDPDMLVIGNFGLSWNQQVTQMALWAIMAAPLFMSNDLRHISPQAKALLQDKDVIAINQDPLGKQGYQLRQGDNFEVWERPLSGLAWAVAMINRQEIGGPRSYTIAVASLGKGVACNPACFITQLLPVKRKLGFYEWTSRLRSHINPTGTVLLQLENTMQMSLKDLL
B2: L286V (protein)
chain: B1 chain with V191L, L286V
B3: A292G (protein)
chain: B1 chain with V191L, A292G
B4: N192D (protein)
chain: B1 chain with V191L, N192D
B5: A288S (protein)
chain: B1 chain with V191L, A288S
B6: N192H (protein)
chain: B1 chain with V191L, N192H
B7: A291G (protein)
chain: B1 chain with V191L, A291G
B8: I289T (protein)
chain: B1 chain with V191L, I289T
B9: A288V (protein)
chain: B1 chain with V191L, A288V
B10: I289V (protein)
chain: B1 chain with V191L, I289V
B11: A288G (protein)
chain: B1 chain with V191L, A288G
B12: I289L (protein)
chain: B1 chain with V191L, I289L
B13: L286F (protein)
chain: B1 chain with V191L, L286F
B14: L294F (protein)
chain: B1 chain with V191L, L294F
B15: A292S (protein)
chain: B1 chain with V191L, A292S
B16: L286H (protein)
chain: B1 chain with V191L, L286H

System: mutant form of α-Gal A expressed in HEK-293 cells
Test: HEK assay (GLP HEK / Migalastat Amenability Assay): α-Gal A activity in lysates of transiently transfected HEK-293 cells incubated with or without 10 μM migalastat
Assay type: cell-based, human
Details: for 10 μM migalastat α-Gal A activity (% WT): 5 days; for 10 μM migalastat α-Gal A activity (% WT) / Baseline α-Gal A activity (% WT): percentage of baseline wild-type α-Gal A activity; for 10 μM migalastat α-Gal A activity (% WT) / Baseline α-Gal A activity (% WT) / Baseline α-Gal A activity / 10 μM migalastat α-Gal A activity: mean ± SEM; for Baseline α-Gal A activity (% WT): absence of migalastat; for 10 μM migalastat α-Gal A activity: incubated 5 days with 10 μM migalastat
Method in brief: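 HEK-293 cells transiently transfected with mutant α-Gal A and incubated with or without 10 μM migalastat; lysate activity given as nmol free 4-MU released per mg protein per hour. Values are mean±SEM.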

[1] = 10 μM migalastat versus baseline
[2] = 10 μM migalastat α-Gal A activity relative to baseline
[3] = lysates of HEK-293 cells transfected with the mutant form, incubated 5 days in the absence of migalastat
[4] = lysates of HEK-293 cells transfected with the mutant form
[5] = lysates of HEK-293 cells transiently transfected with the mutant form, incubated 5 days in absence of migalastat
[6] = lysates of HEK-293 cells transiently transfected with the mutant form

Row | Molecule | Absolute increase (% WT) [1] | Relative increase [2] | 10 μM migalastat α-Gal A activity (% WT) (10 μM migalastat) | Baseline α-Gal A activity (% WT) | Baseline α-Gal A activity [3] | 10 μM migalastat α-Gal A activity [4] | Relative increase [1] | Baseline α-Gal A activity [5] | 10 μM migalastat α-Gal A activity [6] | 10 μM migalastat α-Gal A activity (% WT) (with 10 μM migalastat)
1 | B1 | 39.1 % WT | 1.6 | 110.2 ± 7.9 % WT | 71.1 ± 4.7 % WT | 24068 ± 1533 nmol/mg/h | 37342 ± 2569 nmol/mg/h | – | – | – | –
2 | B2 | 32.9 % WT | – | – | 66 ± 5.1 % WT | – | – | 1.4 | 28713 ± 3734 nmol/mg/h | 41335 ± 3422 nmol/mg/h | 98.9 ± 4.3 % WT
3 | B3 | 24.3 % WT | – | – | 41.1 ± 2.2 % WT | – | – | 1.6 | 12091 ± 652 nmol/mg/h | 19406 ± 1361 nmol/mg/h | 65.3 ± 4 % WT
4 | B4 | 55.6 % WT | 3.2 | 81.5 ± 6.7 % WT | 25.9 ± 3 % WT | 9035 ± 886 nmol/mg/h | 28923 ± 1892 nmol/mg/h | – | – | – | –
5 | B5 | 25.8 % WT | – | – | 114.6 ± 10.6 % WT | – | – | 1.2 | 45790 ± 3395 nmol/mg/h | 55988 ± 2609 nmol/mg/h | 140.4 ± 10.5 % WT
6 | B6 | 16.4 % WT | 2.8 | 24.9 ± 3 % WT | 8.6 ± 1.1 % WT | 3103 ± 402 nmol/mg/h | 8765 ± 935 nmol/mg/h | – | – | – | –
7 | B7 | 34.9 % WT | – | – | 26.6 ± 1.5 % WT | – | – | 2.3 | 6953 ± 474 nmol/mg/h | 16073 ± 954 nmol/mg/h | 61.5 ± 2.6 % WT
8 | B8 | 36.7 % WT | – | – | 38.6 ± 4.8 % WT | – | – | 2.0 | 15033 ± 1450 nmol/mg/h | 29673 ± 2480 nmol/mg/h | 75.3 ± 7.9 % WT
9 | B9 | 31.7 % WT | – | – | 82.5 ± 9 % WT | – | – | 1.4 | 32777 ± 3168 nmol/mg/h | 45501 ± 4634 nmol/mg/h | 114.2 ± 12.4 % WT
10 | B10 | 13.6 % WT | – | – | 61.2 ± 3.2 % WT | – | – | 1.2 | 25845 ± 1706 nmol/mg/h | 31489 ± 1397 nmol/mg/h | 74.8 ± 2.7 % WT
11 | B11 | 19.9 % WT | – | – | 56.8 ± 6.3 % WT | – | – | 1.4 | 22208 ± 1755 nmol/mg/h | 30458 ± 2381 nmol/mg/h | 76.7 ± 7.4 % WT
12 | B12 | 27.5 % WT | – | – | 96.9 ± 10.5 % WT | – | – | 1.3 | 37941 ± 3208 nmol/mg/h | 49640 ± 3368 nmol/mg/h | 124.4 ± 11.3 % WT
13 | B13 | 23.2 % WT | – | – | 64.5 ± 2.8 % WT | – | – | 1.4 | 29390 ± 1225 nmol/mg/h | 39732 ± 2859 nmol/mg/h | 87.7 ± 7.3 % WT
14 | B14 | 38.8 % WT | – | – | 29.6 ± 3 % WT | – | – | 2.3 | 10147 ± 971 nmol/mg/h | 23486 ± 2100 nmol/mg/h | 68.4 ± 6.5 % WT
15 | B15 | 21.3 % WT | – | – | 68.6 ± 2.9 % WT | – | – | 1.3 | 18002 ± 1127 nmol/mg/h | 23779 ± 1584 nmol/mg/h | 89.9 ± 3.4 % WT
16 | B16 | 15.4 % WT | – | – | 0.8 ± 0.1 % WT | – | – | 22.2 | 359 ± 52 nmol/mg/h | 7960 ± 1511 nmol/mg/h | 16.2 ± 2.5 % WT
